Patent publication US20250270328A1 (BRIGHAM AND WOMEN S HOSPITAL, published 2025)
Positions count from the first letter of the chain named. One block for each binder: values may come before it.

Target: T1, human KLRB1 protein extracellular domain (ECD) (human, UniProt Q12918 67-225)
T1 construct: range 67-225; The ELISA and SPR text says only 'human KLRB1 ECD'; also called human KLRB1 ECD; CD161
T1 sequence (looked up): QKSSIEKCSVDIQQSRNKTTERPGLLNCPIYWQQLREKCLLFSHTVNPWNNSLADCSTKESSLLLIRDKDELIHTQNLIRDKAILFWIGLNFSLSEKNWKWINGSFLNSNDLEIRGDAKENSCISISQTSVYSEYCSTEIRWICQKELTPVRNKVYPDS
Experiment: SPR, human KLRB1 ECD; format not stated
Experimental: The chimeric antibody 10A3D6-hIgGlk (a mouse/human chimeric antibody with 10A3D6 variable regions and human IgG1-kappa constant regions), chimeric mutated variants (10A3D6C109S, 10A3D6C109F, and 10A3D6C109V), and humanized variants of 10A3D6 created by CDR grafting (Almagro et al. 2008) were assayed for binding against human KLRB1 extracellular domain (ECD) via surface plasma resonance (SPR).

Kd: 0.106 nM
koff: 9.54e-05 s⁻¹
kon: 903000 M⁻¹ s⁻¹
B1: 10A3D6C109Chum2.2 (antibody, V domains shown)
VH: QVQLVQSGAEVKKPGASVKVSCKASGYSFTGYTMNWVRQAPGQNLEWIGLINPNTGGTYYNQKFKDRVTLTVDTSISTAYMELSRLRSDDTAVYYCARLGDNYRGYFDCWGQGTTVTVSS
VL: DIQLTQSPSFLSASVGDRVTITCKASQDVGTAVVWYQQKPGKAPKLLIDWASIRHTGVPSRFSGSGSGTEFTLTISSLQPEDFADYFCQQYSTYLYTFGGGTKLEIK
notes: Humanized variant of 10A3D6 made by CDR grafting

Kd: 0.147 nM
koff: 0.000183 s⁻¹
kon: 1.24e+06 M⁻¹ s⁻¹
B2: 10A3D6hum1.2 (antibody, V domains shown)
VH: B1 VH with N44G, I48M, L70M, V72R, C109S
VL: DIQLTQSPSFLSASVGDRVTITCKASQDVGTAVVWYQQKPGKAPKLLIDWASIRHTGVPSRFSGSGSGTEFTLTISSLQPEDFADYFCQQYSTYLYTFGGGTKLEIKR
modifications: Fluorescently labelled in the competition assay; dye and attachment site not stated.
notes: Humanized antibody; also called 103AD6hum1.2; copies: 2 + 2

Kd: 0.11 nM
koff: 9.49e-05 s⁻¹
kon: 861000 M⁻¹ s⁻¹
B3: 10A3D6C109Chum2.5 (antibody, V domains shown)
VH: B1 VH
VL: EIVMTQSPATLSVSPGERATLSCKASQDVGTAVVWYQQKPGQAPRLLIDWASIRHTGIPARFSGSGSGTEFTLTISSLQSEDFAVYYCQQYSTYLYTFGGGTKVEIK
notes: as for B1

Kd: 10.2 nM
koff: 0.0196 s⁻¹
kon: 1.92e+06 M⁻¹ s⁻¹
B4: 10A3D6C109Chum5.1 (antibody, V domains shown)
VH: B1 VH with I48M, A92V, T115L
VL: B1 VL with D49Y, D85T, F87Y
notes: as for B1

Kd: 21.7 nM
koff: 0.00253 s⁻¹
kon: 117000 M⁻¹ s⁻¹
B5: 10A3D6C109Chum4.1 (antibody, V domains shown)
VH: B1 VH with P41H, V68A
VL: B1 VL with D49Y, D85T, F87Y
notes: as for B1

Kd: 0.111 nM
koff: 0.000178 s⁻¹
kon: 1.6e+06 M⁻¹ s⁻¹
B6: 10A3D6hum1.5 (antibody, V domains shown)
VH: B1 VH with N44G, I48M, L70M, V72R, C109S
VL: B3 VL
notes: Humanized antibody

Kd: 0.0985 nM
koff: 9.41e-05 s⁻¹
kon: 955000 M⁻¹ s⁻¹
B7: 10A3D6C109Chum2.3 (antibody, V domains shown)
VH: B1 VH
VL: B1 VL with K39T
notes: as for B1

Kd: 0.0717 nM
koff: 8.6e-05 s⁻¹
kon: 1.2e+06 M⁻¹ s⁻¹
B8: 10A3D6C109Chum1.4 (antibody, V domains shown)
VH: B1 VH with N44G, I48M, L70M, V72R
VL: B1 VL with K39T, S60D
notes: as for B1

Kd: 0.103 nM
koff: 9.88e-05 s⁻¹
kon: 963000 M⁻¹ s⁻¹
B9: 10A3D6C109Chum4.4 (antibody, V domains shown)
VH: B1 VH with P41H, V68A
VL: B1 VL with K39T, S60D
notes: as for B1

Kd: 0.127 nM
koff: 0.000109 s⁻¹
kon: 851000 M⁻¹ s⁻¹
B10: 10A3D6C109Chum4.3 (antibody, V domains shown)
VH: B1 VH with P41H, V68A
VL: B1 VL with K39T
notes: as for B1

Kd: 0.0881 nM
koff: 9e-05 s⁻¹
kon: 1.02e+06 M⁻¹ s⁻¹
B11: 10A3D6C109Chum1.5 (antibody, V domains shown)
VH: B1 VH with N44G, I48M, L70M, V72R
VL: B3 VL
notes: as for B1

Kd: 0.143 nM
koff: 0.000133 s⁻¹
kon: 930000 M⁻¹ s⁻¹
B12: 10A3D6C109Chum5.4 (antibody, V domains shown)
VH: B1 VH with I48M, A92V, T115L
VL: B1 VL with K39T, S60D
notes: as for B1

Kd: 0.109 nM
koff: 9.89e-05 s⁻¹
kon: 905000 M⁻¹ s⁻¹
B13: 10A3D6C109Chum3.3 (antibody, V domains shown)
VH: B1 VH with P41H
VL: B1 VL with K39T
notes: as for B1

Kd: 0.17 nM
koff: 0.000139 s⁻¹
kon: 816000 M⁻¹ s⁻¹
B14: 10A3D6C109Chum5.5 (antibody, V domains shown)
VH: B1 VH with I48M, A92V, T115L
VL: B3 VL
notes: as for B1

Kd: 0.0976 nM
koff: 9.68e-05 s⁻¹
kon: 992000 M⁻¹ s⁻¹
B15: 10A3D6C109Chum2.4 (antibody, V domains shown)
VH: B1 VH
VL: B1 VL with K39T, S60D
notes: as for B1

Kd: 0.121 nM
koff: 0.000107 s⁻¹
kon: 880000 M⁻¹ s⁻¹
B16: 10A3D6C109Chum4.2 (antibody, V domains shown)
VH: B1 VH with P41H, V68A
VL: B1 VL
notes: as for B1

Kd: 0.0932 nM
koff: 9.35e-05 s⁻¹
kon: 1e+06 M⁻¹ s⁻¹
B17: 10A3D6C109Chum1.2 (antibody, V domains shown)
VH: B1 VH with N44G, I48M, L70M, V72R
VL: B1 VL
notes: as for B1

Kd: 0.127 nM
koff: 0.000107 s⁻¹
kon: 843000 M⁻¹ s⁻¹
B18: 10A3D6C109Chum4.5 (antibody, V domains shown)
VH: B1 VH with P41H, V68A
VL: B3 VL
notes: as for B1

Kd: 12.9 nM
koff: 0.00408 s⁻¹
kon: 315000 M⁻¹ s⁻¹
B19: 10A3D6C109Chum2.1 (antibody, V domains shown)
VH: B1 VH
VL: B1 VL with D49Y, D85T, F87Y
notes: as for B1

Kd: 0.135 nM
koff: 0.000112 s⁻¹
kon: 832000 M⁻¹ s⁻¹
B20: 10A3D6C109Chum3.2 (antibody, V domains shown)
VH: B1 VH with P41H
VL: B1 VL
notes: as for B1

Kd: 9.42 nM
koff: 0.00296 s⁻¹
kon: 314000 M⁻¹ s⁻¹
B21: 10A3D6C109Chum1.1 (antibody, V domains shown)
VH: B1 VH with N44G, I48M, L70M, V72R
VL: B1 VL with D49Y, D85T, F87Y
notes: as for B1

Kd: 0.173 nM
koff: 0.000138 s⁻¹
kon: 800000 M⁻¹ s⁻¹
B22: 10A3D6C109Chum5.2 (antibody, V domains shown)
VH: B1 VH with I48M, A92V, T115L
VL: B1 VL
notes: as for B1

Kd: 0.155 nM
koff: 0.000134 s⁻¹
kon: 868000 M⁻¹ s⁻¹
B23: 10A3D6C109Chum5.3 (antibody, V domains shown)
VH: B1 VH with I48M, A92V, T115L
VL: B1 VL with K39T
notes: as for B1

Kd: 15.8 nM
koff: 0.00721 s⁻¹
kon: 457000 M⁻¹ s⁻¹
B24: 10A3D6C109Chum3.1 (antibody, V domains shown)
VH: B1 VH with P41H
VL: B1 VL with D49Y, D85T, F87Y
notes: as for B1

Kd: 0.0907 nM
koff: 9.2e-05 s⁻¹
kon: 1.01e+06 M⁻¹ s⁻¹
B25: 10A3D6C109Chum3.4 (antibody, V domains shown)
VH: B1 VH with P41H
VL: B1 VL with K39T, S60D
notes: as for B1

Kd: 0.1 nM
koff: 0.0001 s⁻¹
kon: 999000 M⁻¹ s⁻¹
B26: 10A3D6C109Chum1.3 (antibody, V domains shown)
VH: B1 VH with N44G, I48M, L70M, V72R
VL: B1 VL with K39T
notes: as for B1

Kd: 0.144 nM
koff: 0.000114 s⁻¹
kon: 792000 M⁻¹ s⁻¹
B27: 10A3D6C109Chum3.5 (antibody, V domains shown)
VH: B1 VH with P41H
VL: B3 VL
notes: as for B1

Kd: 0.259 nM
koff: 0.000123 s⁻¹
kon: 475000 M⁻¹ s⁻¹
B28: 10A3D6 (murine monoclonal antibody) (antibody, mouse IgG1)
heavy: EVQLQQSGPELVKPGASMKISCKASGYSFTGYTMNWVKQSHGKNLEWIGLINPNTGGTYYNQKFKDKATLTVDKSSSTAYMELLSLTSEDSAVYYCARLGDNYRGYFDCWGQGTTLTVSSAKTTPPSVYPLAPGSAAQTNSMVTLGCLVKGYFPEPVTVTWNSGSLSSGVHTFPAVLQSDLYTLSSSVTVPSSPRPSETVTCNVAHPASSTKVDKKIVPRDCGCKPCICTVPEVSSVFIFPPKPKDVLTITLTPKVTCVVVDISKDDPEVQFSWFVDDVEVHTAQTQPREEQFNSTFRSVSELPIMHQDWLNGKEFKCRVNSAAFPAPIEKTISKTKGRPKAPQVYTIPPPKEQMAKDKVSLTCMITDFFPEDITVEWQWNGQPAENYKNTQPIMNTNGSYFVYSKLNVQKSNWEAGNTFTCSVLHEGLHNHHTEKSLSHSPGK
light: DIVMTQSHKFMSTSVGDRVNITCKASQDVGTAVVWYQQTPGQSPKVLIDWASIRHTGVPDRFTGSGSGTDFTLTISSVQSEDLADYFCQQYSTYLYTFGGGTKLEIKRADAAPTVSIFPPSSEQLTSGGASVVCFLNNFYPKDINVKWKIDGSERQNGVLNSWTDQDSKDSTYSMSSTLTLTKDEYERHNSYTCEATHKTSTSPIVKSFNRNEC
notes: copies: 2 + 2

Kd: 0.0511 nM
koff: 0.000303 s⁻¹
kon: 5.93e+06 M⁻¹ s⁻¹
B29: 10A3D6C109S-chimeric (antibody, human IgG1, V domains shown)
VH: EVQLQQSGPELVKPGASMKISCKASGYSFTGYTMNWVKQSHGKNLEWIGLINPNTGGTYYNQKFKDKATLTVDKSSSTAYMELLSLTSEDSAVYYCARLGDNYRGYFDSWGQGTTLTVSS
VL: DIVMTQSHKFMSTSVGDRVNITCKASQDVGTAVVWYQQTPGQSPKVLIDWASIRHTGVPDRFTGSGSGTDFTLTISSVQSEDLADYFCQQYSTYLYTFGGGTKLEIK
notes: Chimeric mutated variant; the name hIgG1k indicates human IgG1 kappa constant regions; also called 10A3D6C109ShIgG1k

Kd: 0.0436 nM
koff: 0.000293 s⁻¹
kon: 6.72e+06 M⁻¹ s⁻¹
B30: 10A3D6C109V-chimeric (antibody, human IgG1, V domains shown)
VH: B29 VH with S109V
VL: B29 VL
notes: Chimeric mutated variant; the name hIgG1k indicates human IgG1 kappa constant regions; also called 10A3D6C109VhIgG1k

Kd: 0.0627 nM
koff: 0.000336 s⁻¹
kon: 5.36e+06 M⁻¹ s⁻¹
B31: 10A3D6C109F-chimeric (antibody, human IgG1, V domains shown)
VH: B29 VH with S109F
VL: B29 VL
notes: Chimeric mutated variant; the name hIgG1k indicates human IgG1 kappa constant regions; also called 10A3D6C109FhIgG1k
